Measured values as given in patent publication US20230302148A1, “PHARMACEUTICAL COMPOSITION COMPRISING LONG-ACTING CONJUGATE OF TRIPLE GLUCAGON/GLP-1/GIP RECEPTOR AGONIST” (HANMI PHARM. CO., LTD., priority 2020, published 2023).
Bridges are numbered along the chain shown (N, C = ends). Where no end group is shown, it is not given here. [ ]: non-standard residue; d: D form. The star is where a group is joined. Acetyl(2-(4-imidazolyl)) = O=C(Cc1c[nH]cn1)*; Aib = CC(C)(N)C(=O)O

Each binder was assayed against human GCG receptor (human, UniProt P47871 26-477) (assay: cell-based or functional assay).
Sequence of human GCG receptor (P47871 26-477): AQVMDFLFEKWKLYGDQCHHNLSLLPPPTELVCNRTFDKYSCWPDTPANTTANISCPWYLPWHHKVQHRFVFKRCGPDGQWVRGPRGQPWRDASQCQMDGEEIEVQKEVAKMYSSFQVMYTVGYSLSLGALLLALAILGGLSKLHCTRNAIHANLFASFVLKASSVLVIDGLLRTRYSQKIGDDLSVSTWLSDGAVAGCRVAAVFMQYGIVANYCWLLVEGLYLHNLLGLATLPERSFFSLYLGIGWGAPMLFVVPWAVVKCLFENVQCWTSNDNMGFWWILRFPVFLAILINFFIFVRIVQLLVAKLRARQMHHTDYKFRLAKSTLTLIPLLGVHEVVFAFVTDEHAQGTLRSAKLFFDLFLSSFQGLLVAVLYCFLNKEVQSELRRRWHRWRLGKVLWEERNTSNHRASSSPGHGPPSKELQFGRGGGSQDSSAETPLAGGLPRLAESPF

Going from Y[Aib]QGTFTSDYSKYLDEKAAKDFVQWLLDHHPSSGQPPPSC (bridge 16-20) [triple agonist of SEQ ID NO: 77] to H[Aib]EGTFTSDYSIAMDEIHQKDFVDWLLAEKC (bridge 16-20) [triple agonist of SEQ ID NO: 80], the “In vitro activity relative to native peptide (%) vs. Glucagon” value falls from 12.2% to 0%.

Compared with [Acetyl(2-(4-imidazolyl))][Aib]QGTFTSDKSKYLDERAAQDFVQWLLDGGPSSGAPPPS [triple agonist of SEQ ID NO: 62], [Acetyl(2-(4-imidazolyl))][Aib]QGTFTSDYSKCLDEKRAKEFVQWLLDHHPSSGQPPPS (bridge 16-20; not fully specified) [triple agonist of SEQ ID NO: 74] is higher in “In vitro activity relative to native peptide (%) vs. Glucagon” value: < 0.1% for the first, 0.9% for the second.

First: H[Aib]QGTFTSDYSKYLDEKRQKEFVQWLLDTKC (bridge 16-20) [triple agonist of SEQ ID NO: 78]
Second: [Acetyl(2-(4-imidazolyl))][Aib]QGTFTSDYSIAMDEKHCKDFVNWLLNTK (bridge 16-20; not fully specified) [triple agonist of SEQ ID NO: 60]
The “In vitro activity relative to native peptide (%) vs. Glucagon” value of the first is higher: 14% for the first, < 0.1% for the second.

First: H[Aib]QGTFTSDVSKYLDGQAAQEFVAWLLAGC [triple agonist of SEQ ID NO: 9]
Second: [Acetyl(2-(4-imidazolyl))][Aib]QGTFTSDYSKYLDECRAKEFVQWLLDHHPSSGQPPPS (bridge 16-20; not fully specified) [triple agonist of SEQ ID NO: 73]
The “In vitro activity relative to native peptide (%) vs. Glucagon” value of the first is lower: 0.13% for the first, 5.4% for the second.

Compared with Y[Aib]QGTFTSDYSKCLDERAAKEFVQWLLDHHPSSGQPPPS (bridge 16-20) [triple agonist of SEQ ID NO: 69], Y[Aib]QGTFTSDYSKYLDECRAKDFVQWLLDHHPSSGQPPPS (bridge 16-20) [triple agonist of SEQ ID NO: 66] is higher in “In vitro activity relative to native peptide (%) vs. Glucagon” value: 9.6% for the first, 172% for the second.

Compared with Y[Aib]QGTFTSDCSKYLDERAAKDFVQWLLDHHPSSGQPPPS (bridge 16-20) [triple agonist of SEQ ID NO: 72], Y[Aib]QGTFTSDYSKYLDERACKDFVQWLLDHHPSSGQPPPS (bridge 16-20) [triple agonist of SEQ ID NO: 71] is higher in “In vitro activity relative to native peptide (%) vs. Glucagon” value: 1% for the first, 12.7% for the second.

Compared with Y[Aib]QGTFTSDYSKYLDECAAKEFVQWLLDHHPSSGQPPPS (bridge 16-20) [triple agonist of SEQ ID NO: 64], {Acetyl(2-(4-imidazolyl))}-[Aib]QGTFTSDYSKYLDEKRQKEFVQWLLDTC (bridge 15-19) [triple agonist of SEQ ID NO: 82] is lower in “In vitro activity relative to native peptide (%) vs. Glucagon” value: 60.1% for the first, 1.1% for the second.

What follows are binders tested against T1, human GIP receptor (human, UniProt P48546 22-466) (assay: cell-based or functional assay).
T1 sequence (looked up): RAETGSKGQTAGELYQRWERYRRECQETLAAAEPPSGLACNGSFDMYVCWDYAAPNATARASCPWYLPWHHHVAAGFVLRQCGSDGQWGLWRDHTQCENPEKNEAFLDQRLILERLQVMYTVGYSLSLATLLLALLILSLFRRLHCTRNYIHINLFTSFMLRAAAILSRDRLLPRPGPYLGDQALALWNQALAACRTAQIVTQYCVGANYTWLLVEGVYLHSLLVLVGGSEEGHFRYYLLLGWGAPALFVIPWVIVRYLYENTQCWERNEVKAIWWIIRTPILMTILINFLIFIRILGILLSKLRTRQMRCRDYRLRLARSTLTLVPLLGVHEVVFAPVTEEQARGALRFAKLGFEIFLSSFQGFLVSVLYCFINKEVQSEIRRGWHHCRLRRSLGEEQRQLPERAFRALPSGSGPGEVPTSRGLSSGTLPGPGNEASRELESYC

Going from Y[Aib]QGTFTSDYSKYLDEKAAKDFVQWLLDHHPSSGQPPPSC (bridge 16-20) [triple agonist of SEQ ID NO: 77] to H[Aib]EGTFTSDYSIAMDEIHQKDFVDWLLAEKC (bridge 16-20) [triple agonist of SEQ ID NO: 80], the “In vitro activity relative to native peptide (%) vs. GIP” value falls from 35.5% to 0.1%.

Compared with [Acetyl(2-(4-imidazolyl))][Aib]QGTFTSDKSKYLDERAAQDFVQWLLDGGPSSGAPPPS [triple agonist of SEQ ID NO: 62], [Acetyl(2-(4-imidazolyl))][Aib]QGTFTSDYSKCLDEKRAKEFVQWLLDHHPSSGQPPPS (bridge 16-20; not fully specified) [triple agonist of SEQ ID NO: 74] is higher in “In vitro activity relative to native peptide (%) vs. GIP” value: < 0.1% for the first, 1% for the second.

Going from H[Aib]QGTFTSDYSKYLDEKRQKEFVQWLLDTKC (bridge 16-20) [triple agonist of SEQ ID NO: 78] to [Acetyl(2-(4-imidazolyl))][Aib]QGTFTSDYSIAMDEKHCKDFVNWLLNTK (bridge 16-20; not fully specified) [triple agonist of SEQ ID NO: 60], the “In vitro activity relative to native peptide (%) vs. GIP” value rises from 0.12% to 8.2%.

Going from H[Aib]QGTFTSDVSKYLDGQAAQEFVAWLLAGC [triple agonist of SEQ ID NO: 9] to [Acetyl(2-(4-imidazolyl))][Aib]QGTFTSDYSKYLDECRAKEFVQWLLDHHPSSGQPPPS (bridge 16-20; not fully specified) [triple agonist of SEQ ID NO: 73], the “In vitro activity relative to native peptide (%) vs. GIP” value rises from < 0.1% to 3%.

Going from Y[Aib]QGTFTSDYSKCLDERAAKEFVQWLLDHHPSSGQPPPS (bridge 16-20) [triple agonist of SEQ ID NO: 69] to Y[Aib]QGTFTSDYSKYLDECRAKDFVQWLLDHHPSSGQPPPS (bridge 16-20) [triple agonist of SEQ ID NO: 66], the “In vitro activity relative to native peptide (%) vs. GIP” value falls from 62.8% to 17.2%.

Going from Y[Aib]QGTFTSDCSKYLDERAAKDFVQWLLDHHPSSGQPPPS (bridge 16-20) [triple agonist of SEQ ID NO: 72] to Y[Aib]QGTFTSDYSKYLDERACKDFVQWLLDHHPSSGQPPPS (bridge 16-20) [triple agonist of SEQ ID NO: 71], the “In vitro activity relative to native peptide (%) vs. GIP” value rises from 1.6% to 94.7%.

Going from Y[Aib]QGTFTSDYSKYLDECAAKEFVQWLLDHHPSSGQPPPS (bridge 16-20) [triple agonist of SEQ ID NO: 64] to {Acetyl(2-(4-imidazolyl))}-[Aib]QGTFTSDYSKYLDEKRQKEFVQWLLDTC (bridge 15-19) [triple agonist of SEQ ID NO: 82], the “In vitro activity relative to native peptide (%) vs. GIP” value falls from 92.9% to < 0.1%.

Each binder was assayed against human GLP-1 receptor (human, UniProt P43220 24-463) (assay: cell-based or functional assay).

In order of rising “In vitro activity relative to native peptide (%) vs. GLP-1” value:
1. [Acetyl(2-(4-imidazolyl))][Aib]QGTFTSDKSKYLDERAAQDFVQWLLDGGPSSGAPPPS [triple agonist of SEQ ID NO: 62]  5.2%
2. H[Aib]EGTFTSDYSIAMDEIHQKDFVDWLLAEKC (bridge 16-20) [triple agonist of SEQ ID NO: 80]  8.1%
3. {Acetyl(2-(4-imidazolyl))}-[Aib]QGTFTSDYSKYLDEKRQKEFVQWLLDTC (bridge 15-19) [triple agonist of SEQ ID NO: 82]  9.5%
4. Y[Aib]QGTFTSDCSKYLDERAAKDFVQWLLDHHPSSGQPPPS (bridge 16-20) [triple agonist of SEQ ID NO: 72]  11.5%
5. [Acetyl(2-(4-imidazolyl))][Aib]QGTFTSDYSKCLDEKRAKEFVQWLLDHHPSSGQPPPS (bridge 16-20; not fully specified) [triple agonist of SEQ ID NO: 74]  12.9%
6. Y[Aib]QGTFTSDYSKYLDECRAKDFVQWLLDHHPSSGQPPPS (bridge 16-20) [triple agonist of SEQ ID NO: 66]  15.8%
7. [Acetyl(2-(4-imidazolyl))][Aib]QGTFTSDYSKYLDECRAKEFVQWLLDHHPSSGQPPPS (bridge 16-20; not fully specified) [triple agonist of SEQ ID NO: 73]  22.6%
8. Y[Aib]QGTFTSDYSKCLDERAAKEFVQWLLDHHPSSGQPPPS (bridge 16-20) [triple agonist of SEQ ID NO: 69]  24.3%
9. H[Aib]QGTFTSDVSKYLDGQAAQEFVAWLLAGC [triple agonist of SEQ ID NO: 9]  32.1%
10. Y[Aib]QGTFTSDYSKYLDEKAAKDFVQWLLDHHPSSGQPPPSC (bridge 16-20) [triple agonist of SEQ ID NO: 77]  38.7%
11. H[Aib]QGTFTSDYSKYLDEKRQKEFVQWLLDTKC (bridge 16-20) [triple agonist of SEQ ID NO: 78]  51%
12. Y[Aib]QGTFTSDYSKYLDECAAKEFVQWLLDHHPSSGQPPPS (bridge 16-20) [triple agonist of SEQ ID NO: 64]  64.6%
13. Y[Aib]QGTFTSDYSKYLDERACKDFVQWLLDHHPSSGQPPPS (bridge 16-20) [triple agonist of SEQ ID NO: 71]  90.1%
14. [Acetyl(2-(4-imidazolyl))][Aib]QGTFTSDYSIAMDEKHCKDFVNWLLNTK (bridge 16-20; not fully specified) [triple agonist of SEQ ID NO: 60]  106%
